Results as given in patent publication US20140227287A1.

Biological target: human βNGF (R&D Systems, Inc.) (human) (UniProt P01138)
Test: dynamic light scattering of antibody incubated with human βNGF

Chain of human βNGF (R&D Systems, Inc.) (human) (P01138 122-241 limits assumed): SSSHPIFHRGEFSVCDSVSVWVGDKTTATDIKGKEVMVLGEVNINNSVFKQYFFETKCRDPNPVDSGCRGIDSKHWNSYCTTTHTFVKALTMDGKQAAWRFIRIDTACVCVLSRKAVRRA

Particle size Average (d · nm), IgG + rhNGF: 12.6 nm·days
Particle size Peak (d · nm), IgG + rhNGF: 11.7 nm·days
Substance: Control IgG (antibody)
